Results reported in patent publication US8734803.
Where a chain is given by its changes, count along the chain named.

B1: plant-produced humanized 2B9 antibody G2K3 (antibody, V domains shown)
VH: QVQLVQSGSELKKPGASVKMSCKAAGYTFTNYWIGWVRQAPGQGLEWIGDIYPENDFSNYNEKFKDRATLTADTSTRTAYMELSSLRSEDTAVYYCVRANEGWYLDVWGQGTTVTVSS
VL: DIQMTQSPSSLSASVGDRVTITCRASENIYSYLAWYQQKPGKAPKLLVYFAKTLAEGVPSRFSGSGSGTEFTLTISSLQPDDFANYYCQHHYGTPYTFGQGTKLEIKR
B2: plant-produced humanized 2B9 antibody G2K4 (antibody, V domains shown)
VH: B1 VH
VL: B1 VL with N85T
B3: plant-produced humanized 2B9 antibody G5K4 (antibody, V domains shown)
VH: B1 VH with M20V, A68V, L70I, R77S
VL: B1 VL with N85T
B4: plant-produced humanized 2B9 antibody G5K3 (antibody, V domains shown)
VH: B1 VH with M20V, A68V, L70I, R77S
VL: B1 VL

What follows are binders tested against NA (neuraminidase) used in the NA activity inhibition experiments of Example 9 (assay: cell-based or functional assay).
With B1 the IC50, inhibition of NA activity was 0.5 µg/mL. B2 was tested, and the IC50, inhibition of NA activity was 1.16 µg/mL. B3 showed an IC50, inhibition of NA activity of 0.21 µg/mL. With B4 the IC50, inhibition of NA activity was 0.45 µg/mL.
